B1: Peptide-3 (peptide)
peptide: DEVGEANN
B2: Peptide-4 (peptide)
peptide: LHGMEDPE
B3: Peptide-1 (peptide)
peptide: TPGPGVRYP
B4: Peptide-5 (peptide)
peptide: PVRPQVPLRP
B5: Peptide-2 (peptide)
peptide: GENNCLLH

What follows are binders tested against ASK-1 + Nef (Nef and ASK1g co-transfected in ATCC CRL-1573 cells) (HIV-1; human, UniProt Q99683 1-1050) (assay: cell-based or functional assay).
Chain of ASK-1 + Nef (Nef and ASK1g co-transfected in ATCC CRL-1573 cells) (Q99683 1-1050): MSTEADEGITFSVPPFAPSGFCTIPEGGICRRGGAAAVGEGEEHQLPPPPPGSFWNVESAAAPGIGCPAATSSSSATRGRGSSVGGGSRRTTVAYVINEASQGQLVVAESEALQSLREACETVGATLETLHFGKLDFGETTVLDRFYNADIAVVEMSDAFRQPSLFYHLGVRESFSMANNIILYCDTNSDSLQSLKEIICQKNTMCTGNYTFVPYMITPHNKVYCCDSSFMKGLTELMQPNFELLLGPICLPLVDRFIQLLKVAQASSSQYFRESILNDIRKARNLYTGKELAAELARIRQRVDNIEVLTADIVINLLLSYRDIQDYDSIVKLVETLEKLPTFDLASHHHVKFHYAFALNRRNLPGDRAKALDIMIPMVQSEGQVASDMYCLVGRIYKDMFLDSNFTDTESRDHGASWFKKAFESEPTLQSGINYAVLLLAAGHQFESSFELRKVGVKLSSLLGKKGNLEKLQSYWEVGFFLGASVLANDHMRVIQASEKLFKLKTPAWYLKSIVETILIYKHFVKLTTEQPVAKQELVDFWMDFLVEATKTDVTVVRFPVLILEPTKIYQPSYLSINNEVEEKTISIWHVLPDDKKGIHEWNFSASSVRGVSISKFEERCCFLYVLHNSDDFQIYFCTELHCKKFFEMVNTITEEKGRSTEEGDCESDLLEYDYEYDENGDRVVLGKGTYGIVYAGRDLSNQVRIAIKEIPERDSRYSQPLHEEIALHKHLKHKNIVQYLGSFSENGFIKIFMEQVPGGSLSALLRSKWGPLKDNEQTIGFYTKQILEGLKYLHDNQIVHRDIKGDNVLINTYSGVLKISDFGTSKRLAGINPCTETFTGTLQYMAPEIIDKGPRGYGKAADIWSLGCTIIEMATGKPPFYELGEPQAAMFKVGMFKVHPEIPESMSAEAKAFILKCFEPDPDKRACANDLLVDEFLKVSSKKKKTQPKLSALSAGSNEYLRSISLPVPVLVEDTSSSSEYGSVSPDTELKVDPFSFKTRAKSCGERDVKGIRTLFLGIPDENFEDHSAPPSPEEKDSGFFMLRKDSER

| Binder | % of Annexin V cells means apoptotic cells |
| --- | --- |
| B1 | 40.4% |
| B2 | 23% |
| B3 | 22.4% |
| B4 | 22.4% |
| B5 | 25% |

Source: patent publication US20150182581A1 (COUNCIL OF SCIENTIFIC AND INDUSTRIAL RESEARCH, published 2015)
